Experimental data: article PMC10178974

Legend:
Assay in all cases: BLI
[1] = test system: Influenza A virus virions (hemagglutinin is the stated target of RHA0385) (Influenza A virus H7N1); conditions: BLI: PBS pH 7.4 ([…]; temperature not stated
[2] = test system: Respiratory syncytial virus virions (surface protein not named) (Respiratory syncytial virus A2); conditions: BLI: PBS pH 7.4 (8 mM Na2HPO4, 1.5 mM KH2PO4, 140 mM NaCl, 10 mM KCl), 0.01% Tween-20, 0.1 mg/mL BSA; biotin-aptamer on streptavidin sensor; virus as analyte …
[3] = target: SARS-CoV-2 virions (S protein RBD is the stated target of RBD-1C) (SARS-CoV-2) (UniProt P0DTC2); conditions: BLI: PBS pH 7.4 ([…]; temperature not stated
[4] = test system: Adenovirus type 5 virions (surface protein not named) (Human adenovirus 5?); conditions: BLI: PBS pH 7.4 (8 mM Na2HPO4, 1.5 mM KH2PO4, 140 mM NaCl, 10 mM KCl), 0.01% Tween-20, 0.1 mg/mL BSA; biotin-aptamer on streptavidin sensor; virus as analyte …

| Sequence | Kd [1] [pM] | Kd [2] [pM] | Kd [3] [pM] | Kd [4] [pM] |
| --- | --- | --- | --- | --- |
| AGTGCGGTGAGCCGTCGGACATACAAATAC [Biotin-H8] | 3.5 | 0.031 |  |  |
| CAGCACCGACCTTGTGCTTTGGGAGTGCTGGTCCAAGGGCGTTAATGGACA [Biotin-RBD-1C] |  |  | 0.071 |  |
| GTGCCAGCTATGCCATTGGCGGGTCGTCCAATTCGAGAGGTCCCCTAGCGTCTATCTCTGCTGC [Biotin-ADV-20] | 2.6 | 0.38 | 50 | 0.011 |
| TTGGGGTTATTTTGGGAGGGCGGGGGTT [Biotin-RHA0386 (RHA0385 in text)] | 0.021 |  |  |  |
